The text below walks through data of patent US20100167390, “Novel Oligonucleotide and NF-kB Decoy Comprising the Same” (published 2010).

The target in data set [1] is T1, NF-kB p65 (RelA) (UniProt Q04206 Q04206:1-551). Nature of the data set: competition; primary screen 2.10. Particulars: protein: extract; tags: TPA and CI-stimulated Jurkat nuclear extract, Active Motif TransAM kit. How it is done:
(§1) The measurement was performed in accordance with the instructions attached to the kit. The kit was made for quantifying the NF-κB bound to the solid phase by ELISA after adding an NF-κB solution to the wells in which the NF-κB (p65 protein) consensus binding sequence was immobilized and after washing the resultant. By this measurement method, the higher the binding capacity of the oligonucleotide to the NF-κB, the smaller amount of the NF-κB quantified by the ELISA.
(§2) More concretely, the above-described measurement was carried out as follows concretely: Each SODN solution was serially diluted with Complete Binding Buffer contained in the kit to prepare test samples (common ratio: 3-fold, 4 times, n=3). […] After allowing coloration for 10 minutes, the Stop Solution was added to stop the reaction, and the absorbances at 450 nm and 630 nm were measured.
(§3) The absorbance at 630 nm was subtracted from the absorbance at 450 nm and the mean value of the blanks was further subtracted from the resultant, and the percentage of the mean value of each concentration based on the mean value of the controls was calculated. The concentration at which the calculated value was 50% (i.e., at which the binding was inhibited by 50%) was calculated from the regression lines between two points interposing 50% (an analysis software Graph Pad PRISM 4, GraphPad SOFTWARE was used). […]

Data set [2] concerns the target T1, NF-kB p65 (RelA). Nature of the data set: competition; primary screen 1.33. To be noted: protein: extract; tags: TPA and CI-stimulated Jurkat nuclear extract, Active Motif TransAM kit. How it is done:
as §1, §2, §3

T1 sequence (Q04206 whole entry, one chain of several): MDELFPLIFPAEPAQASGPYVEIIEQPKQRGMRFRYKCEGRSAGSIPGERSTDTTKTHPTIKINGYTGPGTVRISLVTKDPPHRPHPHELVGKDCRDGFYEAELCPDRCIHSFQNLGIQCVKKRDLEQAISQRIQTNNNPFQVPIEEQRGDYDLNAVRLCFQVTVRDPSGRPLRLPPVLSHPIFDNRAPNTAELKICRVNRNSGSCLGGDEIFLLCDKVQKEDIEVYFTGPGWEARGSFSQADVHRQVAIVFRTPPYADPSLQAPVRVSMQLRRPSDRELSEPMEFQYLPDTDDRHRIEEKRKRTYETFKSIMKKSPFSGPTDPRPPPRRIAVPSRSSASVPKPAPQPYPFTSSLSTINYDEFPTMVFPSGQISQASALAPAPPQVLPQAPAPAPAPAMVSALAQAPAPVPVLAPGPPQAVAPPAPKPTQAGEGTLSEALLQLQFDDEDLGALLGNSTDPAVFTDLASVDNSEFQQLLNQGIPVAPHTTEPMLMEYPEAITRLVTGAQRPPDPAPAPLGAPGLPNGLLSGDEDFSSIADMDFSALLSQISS

B1: SODN36 (dsDNA)
DNA 1: CTCGGGATTTCCCAGCTCG
DNA 2: CGAGCTGGGAAATCCCGAG
modifications: PS all bonds, both strands
Regarding B1, the IC50 with NF-kB p65 (RelA) [1] was 2.61 nM.

B2: SODN30 (dsDNA)
DNA 1: GGCTGGGATTTCCCGCGG
DNA 2: CCGCGGGAAATCCCAGCC
modifications: PS all bonds, both strands
Regarding B2, in the data set with NF-kB p65 (RelA) [2], the IC50 is 1.87 nM.

In general, IC50 refers to the point on the concentration scale where inhibition reaches its midpoint. Low values mean greater potency in that assay, high ones weaker potency in that assay.
